According to patent publication US20220380475A1 (SORRISO PHARMACEUTICALS, published 2022):
Numbering of substitutions follows the chain as printed. In names and notes the source's numbering stands.

T1: recombinant soluble human IL-6R (human, UniProt P08887 20-365)
T1 construct: also called sIL-6R; shIL-6R
T1 sequence: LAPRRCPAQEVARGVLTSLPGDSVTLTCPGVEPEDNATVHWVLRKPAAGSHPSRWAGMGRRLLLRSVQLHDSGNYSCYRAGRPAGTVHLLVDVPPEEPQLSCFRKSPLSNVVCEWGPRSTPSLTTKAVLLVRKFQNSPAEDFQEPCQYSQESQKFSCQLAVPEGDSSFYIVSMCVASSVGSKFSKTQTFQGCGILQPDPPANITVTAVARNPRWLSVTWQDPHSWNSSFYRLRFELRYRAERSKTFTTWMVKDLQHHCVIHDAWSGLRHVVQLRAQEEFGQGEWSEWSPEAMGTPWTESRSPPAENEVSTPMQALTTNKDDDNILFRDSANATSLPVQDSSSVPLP

T2: membrane-bound human IL-6R on TF-1 cells (human, UniProt P08887 20-468)
T2 sequence: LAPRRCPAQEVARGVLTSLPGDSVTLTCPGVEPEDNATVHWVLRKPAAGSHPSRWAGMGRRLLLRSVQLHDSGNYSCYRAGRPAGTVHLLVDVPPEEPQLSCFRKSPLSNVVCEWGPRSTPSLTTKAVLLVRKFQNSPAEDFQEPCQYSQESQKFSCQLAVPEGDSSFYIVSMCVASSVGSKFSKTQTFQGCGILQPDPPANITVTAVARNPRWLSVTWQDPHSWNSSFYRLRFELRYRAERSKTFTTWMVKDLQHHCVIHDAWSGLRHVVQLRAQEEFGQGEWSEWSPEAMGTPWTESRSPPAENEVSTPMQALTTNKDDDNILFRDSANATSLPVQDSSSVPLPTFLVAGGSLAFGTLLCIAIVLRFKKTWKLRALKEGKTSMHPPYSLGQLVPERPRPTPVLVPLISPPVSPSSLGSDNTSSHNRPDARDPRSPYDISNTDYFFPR

T3: cynomolgus monkey soluble IL-6R (from cynomolgus monkey serum) (cynomolgus monkey, UniProt P08887 20-365 (human entry))
T3 construct: Natural soluble IL-6R present in diluted normal cynomolgus monkey serum; also called cyno IL6R; cynomolgous sIL-6R
T3 chain: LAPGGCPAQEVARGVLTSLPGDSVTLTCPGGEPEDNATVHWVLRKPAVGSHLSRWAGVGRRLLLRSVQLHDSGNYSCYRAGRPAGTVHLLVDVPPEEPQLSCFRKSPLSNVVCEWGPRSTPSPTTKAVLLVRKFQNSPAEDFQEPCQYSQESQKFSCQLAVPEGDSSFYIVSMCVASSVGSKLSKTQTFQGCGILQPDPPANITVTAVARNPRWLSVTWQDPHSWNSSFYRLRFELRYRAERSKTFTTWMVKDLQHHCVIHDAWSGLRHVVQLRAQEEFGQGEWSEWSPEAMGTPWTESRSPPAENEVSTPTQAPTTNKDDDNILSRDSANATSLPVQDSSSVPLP

B1: ID-3V (VHH)
VHH: EVQLVESGGGLVQAGGSTRLTCLASGSISSINVIGWYRQAPGKQRELVAMIGRGEGANYGDFAKGRFTISRDNSKNTVYLQMNSLKPEDTAVYYCYADYEDHDSPFNGSWGQGTQVTVSS
notes: Mutant of 7F6; also called 7F6 + R102H; not shown: C-terminal Flag- and His-tags of E. coli constructs
B2: ID-40V (VHH)
VHH: B1 VHH with F106H
notes: Mutant of 7F6; also called 7F6 + R102H, F106H; not shown: C-terminal Flag- and His-tags of E. coli constructs
B3: ID-6V (VHH)
VHH: B1 VHH with H102R, F106H
notes: Mutant of 7F6; also called 7F6 + F106H; not shown: C-terminal Flag- and His-tags of E. coli constructs
B4: ID-49V (VHH)
VHH: B1 VHH with H102R, F106T
notes: Mutant of 7F6; also called 7F6 + F106T; not shown: C-terminal Flag- and His-tags of E. coli constructs
B5: ID-47V (VHH)
VHH: B1 VHH with H102R, F106I
notes: Mutant of 7F6; also called 7F6 + F106I; not shown: C-terminal Flag- and His-tags of E. coli constructs
B6: ID-50V (VHH)
VHH: B1 VHH with H102R, F106V
notes: Mutant of 7F6; also called 7F6 + F106V; not shown: C-terminal Flag- and His-tags of E. coli constructs
B7: 3C12 (VHH)
VHH: EVQLVESGGGLAQLGGSLRLSCVASGNIFSSNTAGWFRQAPGKQREWVAGISIGGMPAYADSVKGRFTISRDNAKNTVYLQMNSLKPEDTAVYYCATGGTEYDYWGQGTQVTVSS
notes: Llama ICVD from library 37-3, produced in E. coli; also called VIL-3C12; not shown: C-terminal Flag and 6xHis tags from vector pMEK222
B8: 20A11 (prior art comparative example) (VHH)
VHH: EVQLVESGGGLVQPGGSLRLSCAASGSVFKINVMAWYRQAPGKGRELVAGIISGGSTSYADSVKGRFTISRDNAKNTLYLQMNSLRPEDTAVYYCAFITTESDYDLGRRYWGQGTLVTVSS
notes: Prior art anti-IL-6R polypeptide disclosed in WO 2010/115998; also called PMP20A11
B9: 4D3 (VHH)
VHH: EVQLVESGGGSVQAGESLTLSCVASISTFSQNAMGWFRQAAGKRRESVARISSSGNVGYTDAVKGRFTMSRDNAKKTVYLQMNSLKPEDTAVYYCNAYSMSGELAAPWGQGTQVTVSS
notes: Llama ICVD from library 46-3, produced in E. coli; also called VIL-4D3; not shown: C-terminal Flag and 6xHis tags from vector pMEK222
B10: 5G9 (VHH)
VHH: EVQLVESGGGLVQAGGSTRLTCKASGSIFNINSINVMAWYRQAPGKQRELVAIIGKGGGTNYADFVKGRFTISRDAAKNTVNLQMNSLKPEDTAVYYCYADYEDRDSPFNASWGQGTQVTVSS
notes: also called VIL-5G9; 'Wild type' 5G9; not shown: C-terminal Flag and 6xHis tags from vector pMEK222
B11: ID-122V (VHH)
VHH: B10 VHH with F29S, Q47G, K89R, R105H, F109H
notes: E. coli-produced trans-selective 5G9 derivative; also called 5G9 + F29S, Q47G, K89R, R105H, F109H; not shown: C-terminal FLAG-6xHis
B12: ID-57V (VHH)
VHH: B10 VHH with F29I
notes: Mutant of 5G9; also called 5G9 + F29I; not shown: C-terminal Flag- and His-tags of E. coli constructs
B13: ID-55V (VHH)
VHH: B10 VHH with K23H
notes: Mutant of 5G9; also called 5G9 + K23H; not shown: C-terminal Flag- and His-tags of E. coli constructs
B14: ID-54V (VHH)
VHH: B10 VHH with R105H
notes: Mutant of 5G9; also called 5G9 + R105H; not shown: C-terminal Flag- and His-tags of E. coli constructs
B15: ID-59V (VHH)
VHH: B10 VHH with Y62D
notes: Mutant of 5G9; also called 5G9 + Y62D; not shown: C-terminal Flag- and His-tags of E. coli constructs
B16: ID-52V (VHH)
VHH: B10 VHH with R105H, F109H
notes: Mutant of 5G9; also called 5G9 + F109H, R105H; not shown: C-terminal Flag- and His-tags of E. coli constructs
B17: ID-53V (VHH)
VHH: B10 VHH with F109H
notes: Mutant of 5G9; also called 5G9 + F109H; not shown: C-terminal Flag- and His-tags of E. coli constructs
B18: ID-56V (VHH)
VHH: B10 VHH with F29S
notes: Mutant of 5G9; also called 5G9 + F29S; not shown: C-terminal Flag- and His-tags of E. coli constructs

target: T1, recombinant soluble human IL-6R; test: standard gp130 ELISA (competition); column 'Potency'

Binder | IC50 [nM]
B1 | 0.16
B2 | 0.21
B3 | 0.22
B4 | 0.31
B5 | 0.27
B6 | 0.24

target: T2, membrane-bound human IL-6R on TF-1 cells; test: cell-based or functional assay

Binder | IC50 of inhibition of IL-6-induced TF-1 cell proliferation [nM]
B7 | 44.6
B8 | 1.1
B9 | 26
B10 | 0.9

Target: T3, cynomolgus monkey soluble IL-6R (from …)
Test: ratio of gp130 ELISA IC50s on human and cynomolgus sIL-6R
Protocol: (§1) The standard anti-cynomolgus monkey IL-6R gp130 ELISA assay detailed under ‘Potency, neutralisation and inhibition’ above was performed to assay the ICVDs in parallel for their ability to neutralise sIL6R in cynomolgous monkey serum and recombinant purified human sIL6R. Briefly, Maxisorp 96-well plates were coated overnight with 50 μl/well 1 μg/ml gp130 then blocked. ICVDs were serially diluted and mixed 1:1 with 200 ng/ml recombinant human IL-6, then 1:1 with either 20 ng/ml recombinant human sIL-6R or a 5-fold dilution of cynomolgus monkey serum and incubated for 1 hour to allow binding before adding to the gp130-coated plates. Bound cynomolgus monkey IL-6R was detected with 50 μl/well either 0.25 μg/ml (for human IL-6R) or 0.5 μg/ml (for monkey serum) BAF227 and then 50 μl/well 1/1000 Extravidin-HRP and the level of neutralisation by the ICVD of IL-6R binding to IL-6/gp130 was determined

Binder | Ratio Cyno IC50/human IC50 (title: human IC50 divided by cynomolgous IC50)
B7 | 0.9
B8 | 2.3
B9 | 1.9
B10 | 0.2

target: T1, recombinant soluble human IL-6R; test: standard gp130 ELISA (competition), Experiment 2; 10 ng/mL IL-6R, 50 ng/mL IL-6
Protocol: The inhibitory potency and efficacy (maximal inhibition) of the E. coli-produced 5G9 derivatives were confirmed in vitro in the gp130 ELISA, TF-1 cell and M1 cell functional assays measuring responses mediated via human IL-6R. The gp130 assays follow the standard protocol with a final assay concentration of 10 ng/mL IL-6R and 50 ng/mL IL-6.

Binder | EC50 [nM]
B8 | 0.22
B11 | 0.489

target: T1, recombinant soluble human IL-6R; test: standard gp130 ELISA (competition); reference 5G9

Binder | fold increase of IC50 against 5G9 [fold]
B12 | ~3

target: T1, recombinant soluble human IL-6R; test: gp130 ELISA (competition): inhibition of human sIL-6R/IL-6 complex binding to coated gp130; 20 ng/mL IL6R, 100 ng/mL IL6
Protocol: Briefly, Maxisorp 96-well plates were coated overnight with 50 μl/well 0.5 μg/ml gp130 then blocked. ICVDs were serially diluted and mixed 1:1 with 100 ng/ml recombinant human IL-6 then 1:1 with 40 ng/ml recombinant human sIL-6R, and incubated for 1 hour to allow binding before adding to the gp130-coated plates. Bound IL-6R was detected with 50 μl/well 0.250 μg/ml BAF227 and then 50 μl/well 1/1000 diluted Extravidin-HRP and the level of neutralisation by the ICVD of IL-6R binding to IL-6/gp130 was determined.
Dose response curves were obtained (dose response curves of particular ICVDs illustrated in FIG. 1). […] This was confirmed with curve-fitting software (Graphpad Prism), which fitted 4 parameter curves to the data and calculated the IC50s (Table 4.1, below).

Binder | IC50 [nM]
B7 | 1.89
B9 | 0.66
B10 | 0.16

target: T2, membrane-bound human IL-6R on TF-1 cells; test: cell-based or functional assay; remark: another data set of the same source

Binder | TF-1 cell assay EC50 (5 ng/ml IL-6) [nM]
B8 | 0.56

target: T1, recombinant soluble human IL-6R; test: cell-based or functional assay

Binder | M1 cellular assay EC50 (20 ng/ml IL-6R, 100 ng/ml IL-6) [nM]
B11 | 3.96

target: T1, recombinant soluble human IL-6R; test: gp130 ELISA (competition), parallel human arm: 10 ng/mL human IL-6R, 50 ng/mL human IL-6
Protocol: as §1

Binder | IC50 [nM]
B7 | 3.53
B8 | 0.24
B9 | 0.691
B10 | 0.148

Target: T3, cynomolgus monkey soluble IL-6R (from …)
Test: anti-cynomolgus IL-6R gp130 ELISA (competition): 10x diluted cynomolgus serum, 50 ng/mL human IL-6, coated human gp130
Protocol: as §1

Binder | IC50 [nM]
B7 | 4.14
B8 | 0.106
B9 | 0.372
B10 | 0.804

target: T1, recombinant soluble human IL-6R; test: standard gp130 ELISA (competition); 10 ng/mL IL-6R, 50 ng/mL IL-6; column 'Potency'
Protocol: Mutant 5G9 sequences were produced and tested for their potency in the standard gp130 ELISA. The standard gp130 ELISA has a final assay concentration of 10 ng/mL IL-6R and 50 ng/mL IL-6.

Binder | IC50 [nM]
B10 | 0.09
B13 | 0.11
B14 | 0.15
B15 | 0.11
B16 | 0.24
B17 | 0.3
B18 | 0.07
B12 | 0.31

target: T2, membrane-bound human IL-6R on TF-1 cells; test: cell-based or functional assay; remark: another data set of the same source

Binder | Potency in the TF-1 assay
B10 | 0.23 not printed (nM in the filing's other TF-1 tables)
B14 | 0.31 not printed (nM in the filing's other TF-1 tables)
B17 | 17.5 not printed (nM in the filing's other TF-1 tables)
